Results on 19 variants are retold here after the supplement of paper PMC7125110.

± gives the standard error. For some of these results: Fewer inactive variants are shown than the library holds. Bounds are passed on as bounds.

The chains are these.
B1: glmS ribozyme (parent)
chain: AUAAAAGCGCCAGAACUACAGAAAUGUAGUUGACGAGGAGGAGGUUUAUCGAAUUUUCGGCGGAUGCCUCCAAA

Conditions in all cases: with glucosamine-6-phosphate
In data set [1] the parent is B1. Briefly: kcat; higher = faster cleavage; RNA array. The procedure, abridged:
(§1)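 Glucosamine-6-phosphate in HEPES/KCl/Mg(OAc)2 buffer, at 40 μM to 10 mM, was flowed over barcoded ribozyme variants transcribed in situ by E. coli RNA polymerase on sequenced MiSeq chips. Tracking was through a hybridised Cy3 probe at 37 °C. kobs, kcat and KM came from exponential decay fits and weighted Michaelis–Menten fits of normalised per-tile medians.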

Data set [2] covers variants of B1. Description: self-cleavage kobs at 640 uM GlcN6P; higher = faster cleavage; RNA array. The procedure, abridged: as §1
Data set [3] covers variants of B1. Briefly: self-cleavage kobs at 2500 uM GlcN6P; higher = faster cleavage; RNA array. The procedure, abridged:
as §1

The variants in data set [4] derive from B1. Description: self-cleavage kobs at 10000 uM GlcN6P; higher = faster cleavage; RNA array. The procedure, abridged: as §1
Variants of B1 are the subject of data set [5]. Briefly: KM; higher = weaker cofactor use; RNA array. The method, boiled down: as §1
Variants of B1 are the subject of data set [6]. Description: self-cleavage kobs at 160 uM GlcN6P; higher = faster cleavage; RNA array. The procedure, abridged:
as §1

In data set [7] the parent is B1. Description: self-cleavage kobs at 40 uM GlcN6P; higher = faster cleavage; RNA array. The procedure, abridged:
as §1

The kcat is the number of substrate molecules converted per active site and unit of time at saturation. Consider G32U A53C, for which the kcat in data set [1] turned out to be 0.000282 ± 0.00012 s⁻¹. For the same variant, the “self-cleavage kobs at 640 uM GlcN6P” value in data set [2] amounted to 0.000104 ± 2.3e-05 s⁻¹. The “self-cleavage kobs at 2500 uM GlcN6P” value in data set [3] was 0.000105 ± 2.7e-05 s⁻¹. In addition, the “self-cleavage kobs at 10000 uM GlcN6P” value in data set [4] stood at 0.000275 ± 4.6e-05 s⁻¹.

Regarding A6C U56A, the kcat in data set [1] came to 4.08e-05 ± 9.7e-06 s⁻¹. For the same variant, the “self-cleavage kobs at 10000 uM GlcN6P” value in data set [4] was determined as 3.34e-05 ± 7.8e-06 s⁻¹.

In general, KM refers to the substrate concentration at which the rate is half of its maximum. On to G29U C70G, for which the kcat in data set [1] came out at 7.29e-05 ± 6.3e-06 s⁻¹. In data set [5], the KM was found to be 354 ± 150 µM. Besides, in data set [2], the “self-cleavage kobs at 640 uM GlcN6P” value is 5.02e-05 ± 8.2e-06 s⁻¹. Also, the “self-cleavage kobs at 2500 uM GlcN6P” value in data set [3] turned out to be 6.59e-05 ± 7.1e-06 s⁻¹. Further, the “self-cleavage kobs at 10000 uM GlcN6P” value in data set [4] is 6.77e-05 ± 7.7e-06 s⁻¹.

Take G38U G66U: in data set [1], the kcat was < 1e-05 s⁻¹. In data set [6], the “self-cleavage kobs at 160 uM GlcN6P” value is < 1e-05 s⁻¹. Moreover, the “self-cleavage kobs at 640 uM GlcN6P” value in data set [2] was < 1e-05 s⁻¹.

For A33C A39U, the catalytic constant (kcat) in data set [1] turned out to be 0.000401 ± 2.3e-05 s⁻¹. For the same variant, in data set [5], the KM worked out at 4000 ± 470 µM. The “self-cleavage kobs at 640 uM GlcN6P” value in data set [2] is 5.65e-05 ± 7.9e-06 s⁻¹. Further, the “self-cleavage kobs at 2500 uM GlcN6P” value in data set [3] amounted to 0.000146 ± 1.9e-05 s⁻¹. In addition, the “self-cleavage kobs at 10000 uM GlcN6P” value in data set [4] worked out at 0.000289 ± 1.9e-05 s⁻¹.

Consider G32C G43U, for which the catalytic constant (kcat) in data set [1] was < 1e-05 s⁻¹. For the same variant, in data set [7], the “self-cleavage kobs at 40 uM GlcN6P” value was < 1e-05 s⁻¹. For the same variant, the “self-cleavage kobs at 160 uM GlcN6P” value in data set [6] is < 1e-05 s⁻¹. In data set [2], the “self-cleavage kobs at 640 uM GlcN6P” value is < 1e-05 s⁻¹. Also, the “self-cleavage kobs at 10000 uM GlcN6P” value in data set [4] is < 1e-05 s⁻¹.

Turning to A12C C50G G66C, the kcat in data set [1] was 0.000103 ± 2.8e-05 s⁻¹. The “self-cleavage kobs at 160 uM GlcN6P” value in data set [6] worked out at 0.00011 ± 3.2e-05 s⁻¹. Besides, the “self-cleavage kobs at 640 uM GlcN6P” value in data set [2] is 7.92e-05 ± 2.3e-05 s⁻¹. For the same variant, in data set [3], the “self-cleavage kobs at 2500 uM GlcN6P” value came to 0.000103 ± 2.6e-05 s⁻¹.

In the case of G13A U47G, the kcat in data set [1] came to 0.000123 ± 1.6e-05 s⁻¹. Further, the KM in data set [5] is 1830 ± 670 µM. The “self-cleavage kobs at 640 uM GlcN6P” value in data set [2] turned out to be 2.44e-05 ± 9.5e-06 s⁻¹. In data set [3], the “self-cleavage kobs at 2500 uM GlcN6P” value came to 8.26e-05 ± 1.3e-05 s⁻¹. For the same variant, the “self-cleavage kobs at 10000 uM GlcN6P” value in data set [4] amounted to 9.97e-05 ± 1.3e-05 s⁻¹.

With G38U U54C, the catalytic constant (kcat) in data set [1] is < 1e-05 s⁻¹. Besides, in data set [7], the “self-cleavage kobs at 40 uM GlcN6P” value is < 1e-05 s⁻¹. For the same variant, the “self-cleavage kobs at 160 uM GlcN6P” value in data set [6] was < 1e-05 s⁻¹. Further, the “self-cleavage kobs at 640 uM GlcN6P” value in data set [2] is < 1e-05 s⁻¹.

Turning to U30G C58G A64C C67G C71G, in data set [1], the kcat was found to be 4.36e-05 ± 1.6e-05 s⁻¹. For the same variant, in data set [6], the “self-cleavage kobs at 160 uM GlcN6P” value worked out at 5.89e-05 ± 2e-05 s⁻¹.

Take G51A C68A: the kcat in data set [1] was determined as 2.97e-05 ± 4.5e-06 s⁻¹.

Regarding A53G C61U, the kcat in data set [1] is 2.57e-05 ± 1e-06 s⁻¹. Moreover, in data set [7], the “self-cleavage kobs at 40 uM GlcN6P” value is < 1e-05 s⁻¹.

For U30G G43U, the turnover number (kcat) in data set [1] was 1.16e-05 ± 2.3e-06 s⁻¹. The “self-cleavage kobs at 160 uM GlcN6P” value in data set [6] is < 1e-05 s⁻¹. Besides, the “self-cleavage kobs at 640 uM GlcN6P” value in data set [2] is < 1e-05 s⁻¹.

For the variant C16A G40A, the kcat in data set [1] was 0.000202 ± 6.3e-05 s⁻¹. Further, the “self-cleavage kobs at 2500 uM GlcN6P” value in data set [3] came out at 0.000155 ± 2.1e-05 s⁻¹. Further, the “self-cleavage kobs at 10000 uM GlcN6P” value in data set [4] came out at 0.000154 ± 2.9e-05 s⁻¹.

For the variant G38C G66U, the catalytic constant (kcat) in data set [1] was < 1e-05 s⁻¹. Also, the “self-cleavage kobs at 160 uM GlcN6P” value in data set [6] was < 1e-05 s⁻¹. For the same variant, the “self-cleavage kobs at 10000 uM GlcN6P” value in data set [4] was < 1e-05 s⁻¹.

With G40U G41A, in data set [1], the kcat came out at 0.000118 ± 3.1e-06 s⁻¹. In addition, the KM in data set [5] was found to be 1380 ± 130 µM. The “self-cleavage kobs at 640 uM GlcN6P” value in data set [2] came to 3.9e-05 ± 1.1e-05 s⁻¹. Besides, the “self-cleavage kobs at 2500 uM GlcN6P” value in data set [3] was 7.51e-05 ± 9.8e-06 s⁻¹. Also, the “self-cleavage kobs at 10000 uM GlcN6P” value in data set [4] worked out at 0.000104 ± 9.9e-06 s⁻¹.

With G37C A39U, the catalytic constant (kcat) in data set [1] was determined as 1.36e-05 ± 1e-06 s⁻¹. In data set [5], the Michaelis constant (KM) came to 1230 ± 450 µM.

Take A12C G66C C70A: the kcat in data set [1] stood at 8.64e-05 ± 2.7e-05 s⁻¹. For the same variant, the “self-cleavage kobs at 160 uM GlcN6P” value in data set [6] is 0.000157 ± 5.7e-05 s⁻¹. The “self-cleavage kobs at 640 uM GlcN6P” value in data set [2] is 3.9e-05 ± 1.8e-05 s⁻¹. Moreover, in data set [3], the “self-cleavage kobs at 2500 uM GlcN6P” value stood at 0.00011 ± 3.2e-05 s⁻¹. Also, in data set [4], the “self-cleavage kobs at 10000 uM GlcN6P” value was determined as 8.13e-05 ± 1.6e-05 s⁻¹.

As to A15C U55C, in data set [1], the turnover number (kcat) was found to be 0.00633 ± 0.0012 s⁻¹. For the same variant, the KM in data set [5] amounted to 2200 ± 580 µM. In data set [7], the “self-cleavage kobs at 40 uM GlcN6P” value amounted to 0.000138 ± 2e-05 s⁻¹. The “self-cleavage kobs at 160 uM GlcN6P” value in data set [6] turned out to be 0.000383 ± 7.4e-05 s⁻¹. For the same variant, in data set [2], the “self-cleavage kobs at 640 uM GlcN6P” value came to 0.00121 ± 0.00034 s⁻¹. For the same variant, the “self-cleavage kobs at 2500 uM GlcN6P” value in data set [3] worked out at 0.00302 ± 0.00052 s⁻¹. Besides, in data set [4], the “self-cleavage kobs at 10000 uM GlcN6P” value was 0.00573 ± 0.00087 s⁻¹.
